Reference: the nanobody polyreactivity screen of Harvey et al. (2022)

Assay: yeast display, Sf9 membrane polyspecificity reagent, FACS + sequencing; frameworks hold sequencing errors
Outline: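 Polyreactivity labels are assigned by the sorting gate from which each nanobody was recovered. The gates were low and high (top ~1%), set on anti-HA fluorescence for expression and streptavidin fluorescence for reagent binding. Before sorting, galactose-induced (36–48 hours) yeast display cells were stained for 1 hour at 4 °C with 10% biotinylated, detergent-solubilized Sf9 membrane reagent.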

| Sequence | polyreactivity (PSR sort gate) |
| --- | --- |
| QVQLVESGGGLVQAGGSLRLSCAASGRTFSVYTMGWYRQAPGKERELVAAISSTGRTNYADSVKGRFTISRDNAKNTVYLQMNSLKPEDTAVYYCNAGVRNSYTRQALVTAYYLYYYWGQGTQVTVSS | high polyreactivity |
| QDQLVESGGGLVQAGGSLRLSCAASGRIFYVYAMGWYRQAPGKEREFVASISWSGGSTYYADSVKGRFTISRDNAKNTFYLQLNSLKPEDTSVYYCNARAFTHRYDYWGQGTQVTVSS | low polyreactivity |
| QVQLVESGGGLVQAGGSLRLSCAASGRIFSYYDMGWYRQAPGKERELVARISYSGDSTYYADSVKGRFTISRDNAKNTVYLQMNSLKPEDTAVYYCAADSITSKNQGLDYDYWGQGTQVTVSS | low polyreactivity |
| QVQLVESGGGLVQAGGSLRLSCAASGYTFGKYVMGWYRQAPGKERELVAAISISGSGTYYADSVKGRFTISRDNAKNTVYLQMNSLKPEDTAVYYCAARGYGFPELDYWGQGTQVTLSS | high polyreactivity |
| QVHLVESGGGLVQAGGSLRLSCAASGRTFGYYAMGWYRHAPGKERELVAAISRSAATTYYADSVKGRFSISRDNAKNTVYLQMYSLKPDDTAVYYCAAGGRTYAPCDYGYWGQGTQVTVSS | high polyreactivity |
| QVQLVESGGGLVQAGGRLRLSCAASGSTFSYYAMGWYRHAPGKERELVAAITSSGSRTYYADSVKGRFTISRDKAKNTVYLQMNSLKPEDTAVYYCAAVYVYRTSYLISLYDYGYWGQGTQVTVSS | high polyreactivity |
| QVQLVESGGGLVQAGGSLRLSCAASGFTFAYYAMGWYRQAPGKEWELVAAISRGGTSTYYADSVKGRFTISRDKAKNTVYLQMNTLKPEDTAVNYCNAGKVGYSLYDYCGQGTQVTVSS | high polyreactivity |
| QVQLVESGGGLVQAGGSLRLSCAASGIIFALYAMGWYRQAPGKERELVATITYSGGSTYYADSVKGRFTISRDNAKNTVYLQMNSLKPEDSAVYYCNRDQWPWESGYAYNYWGQGTQVTVSS | low polyreactivity |
| QVQLVESGGGLVQAGGSLRLSCAASGFTFAPYAMGWYRQAPGKERELVATIRSSGGRTYYADSVKGRFTISRDNAKNTVYLQMNSLKPEDTAVYYCAATGVYTKNPRGMDYWGQGTKVTVSS | high polyreactivity |
| QVQLLESGGGLVQAGGSLRLSCAASGSIFAYYAMGWYRQAPGKERELVAAISGTGGSTNYADSVKGRFTISRDNAKNTVYLQMNSLKPEDTAVYYCAKDYSFQWRNEFNLAGEYVYWGQGTQVTVSS | low polyreactivity |
| QVQLVESGGGLVQAGGSLLLSCAASGSIFYSNAMGWYRKAPGKERELVAAIRRSGGSTYYADSVKGRFTISRDNAKYTVYLQMNSLKPEDTAVYYCATTRRVPGEYWGQGTQVTVSS | high polyreactivity |
| QDQLVESGGGLVQAGGSLRIICAASGSIVVTNAMGWYRQAPGKVRELVAAMSGRADSTYADSVKGRFTISRDNAKNTVYLQMNSLKPEDTAVDYCAAKVRGWHYYYCGQGTQVTVSS | low polyreactivity |
| QVQLVESGGGLVQAGGSLRLSCAASGSTFTVYAMGWYRQAPGKERELVAAISWGGGSTNYADSVKGRFTISRDNAKNTVYLQMNSLKPEDTAVYYCNADIDDIIGSWGDYWGQGTQVTVSS | low polyreactivity |
| QVHLVESGGGLVQAGGSLRLSCADSGFIFWSYVMGWNRQAPGKESELVAAIDYSGASTYYADSVKGRFTISRDNAKNTVSLQMNSLKPEDTAVYYCNAVAYYPYGYDYWGQGTQVTVSS | low polyreactivity |
| QVPLVESVGGLVQAGGSLRLSCAASGTIFFGYAMGSYRQAPGKERDLVASISSGDTTYYADSVKGRFTISRDNAKNTVYLQMNSLKPEDTAVYYCAAREGQLWEDGDYWGQGTQVTVSS | low polyreactivity |
| QVQLVESGGGLVQAGGSLRLSCAASGRIFRSNAMGWYRQAPGKERELVAVINSDDSTYYADSVKGRFTISRDNAKNTVYLQMNSLKPEDTAVYYCAAEPQYTRHMDSLGQGTQVTVSS | low polyreactivity |
| QVQHVESGGGLVQEGGSLRLSCGASGRTFSYYAMGCYRQPPGKEREMVAAIRATGTTTYYAVSVKGRFTISRDNAKITFYFQMNSLKQDDTAVYYCAARGSRYRSSGYEEWGQGTQVTVSS | high polyreactivity |
| QVQLVESGGGLVQAGGSLRLSCPASGSTFSWYAMGWSRQEPGKERELVAAISYSGGTYYADSVKGRFTISRDNAKNTVYLQKNSLKPEDTAVYYCAAQRTRYGYDYWGQGTQVTVSS | high polyreactivity |
| QVPLVESGGGLVQAGGSLRLSCAASGFTFYAYTMGWYRQAPGKERELVAAINKSGSSKYYADSVKGRFTISRDNAKNTVYLQMNSLKPEDTAVYFCNAYYRKVLGYDKMDYWGQGTQVTVSS | high polyreactivity |
| QVQLVESGGGLVQAGGSLRLSCAASAFTLYPYAKGWYRQAPGKERELVAAISGSGGSTYYADSVKGRFTISRDNAKNTVYLQMNRLKPEDTAVYYCAARYLDVRPFYYWGQGTQVTVSS | high polyreactivity |
| QVQLVESGGGLVQAGGSLRLSCGASGSNFWPNTMGWYRPAPGKERELVAGISFGGGSTYFADSVKGRFTISRDNAKNTVYLEMNRQKPEDTAVYYCNADDPGYAGPWYWVKYDYWGKGTQVTVSS | low polyreactivity |
| QVQLVESGGGLVQAGGSLRLSCAASGRIFAYNDMGWYRQAPGKEREFVAAITWSGTTFSADSVKGRFTISRDNAKNTVYLQMNSLNPEDTAVYYCAAVPYTRWKGADGDYDDVYTEYWGQGTQVTVSS | high polyreactivity |

| Sequence | polyreactivity (PSR sort gate) |
| --- | --- |
| QVQLVESGGGLVQAGGSLRLSCAASGRTFVIYAMGWYRQAPGKQRELVAAISKSGGRTYYADSVKGRFTISRDNAKNSVYLQMNSLKPEDTAVYYCNKVLSVSQAGGFDYWGQGTQVTVSS | high polyreactivity |
| QVQLVESGGGLVQAGGSLRLSCAASGRTFYPYAMGWYRQEPGKVRELVARISSGGNTKYADSVKGRFTISRDNAKNTVYLQMNSLKPEDTAVYYCNAAHYDYVAWKRFNYWGQGTQVTVSS | high polyreactivity |
| QVQLVESGGGLVQAGGSLRLSCAGSGLIFDDYPMGWYRQAPGKERELVAAISWSDGTTYYADSVKGRFTISRDNAKNTVYLQMNSLKPEDTAVYYCAAEEVSGWEYDYWGQGTQVTVSS | high polyreactivity |
| QVQLVESGGGLVHAGGSLRLSCAASGRTFKKYAMGLYRQAPGKERELVAAISWSGGTTYYADSVKGRFTISRDNAKNTVYLQMNSLKPEDTAVYYCAARVSRTGDGYYYYWGQGTQVTVSS | high polyreactivity |
| QVQLVESGGGLVQAGGSLRLSCAASGSTFFVYDMGWYRQAPGKEREMVAAISISDGGTYYADSVKWRFTISRDNAKNYVYLQMNSLKPEDTAVYYCADDYSERYFRGYVYLGQGTQVTVSS | low polyreactivity |
| QVQLVESGGGLVQAGGSLRLSCAASGRTFSYYAMGWYRQAPGKERELVASITSGGRTYYADSVKGRFTISRDNAKNTFYLQMNSLKPEDTAVYYCNVDNQYLDRYGRRYGYWGQGTQVTVSS | low polyreactivity |
| QVQLVESGGGLVQAGGSLRLSCAASGRTFLIYAMGWYRQAPGKERELVAAITNAVDSTYYADSVKGRFTISRDNAKNTVYLQMNSLKPEDTAVYYCNADTVVEWYSPSREYDYWGQGTQVTVSS | low polyreactivity |
| QVQLVESGGGLVQAGGSLRLSCGASGLTFVWYGMGWYRQAPGKERELVAAITRGGSTYYADSVKGRFTISRDNAKNTVYLQMNSVKPEDTAVYYCAARYKYTGYDYWGQGTQVTVSS | high polyreactivity |
| QVQLVESRGGLVQAGGSLRLSCAASGFTFQRYAMGWYRQAPGKERELVAAINRSGGNTHYADSVKGRFTISRDNAKNTVYLQMNSLKPDDTAVYYCAVGTPASVGHYTYDYWGQGTQVTVSS | high polyreactivity |
| QVQLVESGGGLVQAGGSLRLSCADSGRTFYINAMGWYRQAPGKERELVAAISSSGGITYYADSVKGRFTISRENAKNTVYLQMNSLKPEDTAVYYCNAPYVYSWHYDYWGQGTQVTVSS | low polyreactivity |
| QDQLVESGGGLVQAGGSLRLSCDASGSIFPIYAMGWYRQAPGKERELVAAINRSGGSTYYADSVKGRFTISRDNAKNTVYLQMNSLKPEDTAVYYCKADYGYHNQLFWGYYGWSSDHWGQGTQVTVSS | low polyreactivity |
| QVQLVESGGGLVQAVGSLRLSCAASGSISVYYAMGWYRQAPGKEMELVAAISRSGGRTYYADSVKGRFTISRDNAKNTVYLQMNSLKPEDTAVYYCAAGYSSLRRFGVYYWGQGTQVTVSS | high polyreactivity |
| QVQLVESGGRLVQAGGSLRLSCAASGFTFPWYTMGWYRQPPGKEREFVAAITVSGGSTYYADSVKGRFTISRDNAKNSVYLQMNSLKPEDTAVYYCARDGRVVYDSRYDYWGQGTQVTVSS | low polyreactivity |
| QVQLVESGGGLVQAGGSLRLSCAASGSIFSGNAMGRYRQAPGKERELVAAISRSGGSTYYADSVKGRFTISRDNAKNTVYLQMNSLKPEDTAVYYCAAYRTHGPPRAIRFDYWGQGTQVTVSS | high polyreactivity |
| QVQLVESGGGLVQAGGSLRLSCAASGSTFVYNDMGWYRQAPGKEGELVAGITTSGGSTYYADSVKGRFTISRDNAKNTVYLQINSLKPEDTAVYYCAARAFSAWLEMDYWGQGTQVTVSS | low polyreactivity |
| QVQLVESGGGLVQAGGSLRLSCAASGRTFQLNAMGWYRQAPGKERELVAAISTRGGSTYYADSVKGRFTISRDNAKNTVYLQMNRLKPEDTAVYYCAAVTKTLYRSYFLMYYWGQGTQVTVSS | high polyreactivity |
| QVQLVESGGGLVQAGGSLRLSCAASGSTFYDYAMGWYRQAPGKERELVASISSGGGTYYADSVKGRFTISRDNAKNTVYLQMNSLKPEDTAVYYCADDDYSSYVYGTFDRYDYWGQGTQVTLSS | low polyreactivity |
| QVQLVESGGGLVQAGGSLRLSCAASGRTFRPYAMGWYIQAPGKERELVAAIDSSGTSTYYADSVKGRFTISRDNAKNTVYLQMNSLKPEDTAVYYCAKAWPDHWYSRYDYWGQGTQVTVSS | low polyreactivity |
| QVHLVESGGGLVKAGGSLRISCAASGRTFVCYAMGCYRPAPGKERELVAAISSGGSTNYADSVKGRFTISRDNAKNTVYLLMICLKPEDTAVYYCNRRSYQRGWHWARGRYGFWGQGTQVTVSS | high polyreactivity |
| QVQLVESGGGLVQAGGSLRLSCAASGGIFAPYAMGWYRQAPGKERELVADITSDGGSTYYADSVKGRFTISRDNAKNTVYLQMNSLKPEDTAVYYCAAEQRYWWWGHPGDYWGQGTQVTVSS | low polyreactivity |
| QVQLVESGGGLVQAGGSLRLSCAASGSIFRRNAMGWYRQAPGKERELVATITSDGSTDYADSVKGRFTISRDNAKNTVYFQMNSLKPEDTAVYYCAVAYLWRPYDFREFDYWGQGTQVTVSS | low polyreactivity |
